Test system: Escherichia coli TOP10
Assay: shrunken log2 fold change of peptide-encoding DNA abundance (4.5 h post-induction vs induction); higher = less antimicrobial activity (less host growth inhibition)
Conditions: time post-induction: 4.5 h; library: site-saturation at positions 5, 18, 19, 20
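Also: peptides expressed intracellularly from a pBAD plasmid library in pooled LB shake-flask culture, induced with 0.3% L-arabinose, DNA abundance read by NGS, three biological replicates, DESeq2 with apeglm shrinkage.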

Row | Sequence | shrunken log2 fold change
1 | RRIRNRPPRLPRPRPRPAHGPRP | 0.047
2 | RRIRDRPPRLPRPRPRPWMFPRP | -0.0535
3 | RRIRFRPPRLPRPRPRPIPWPRP | -0.14
4 | RRIRWRPPRLPRPRPRPNWQPRP | -0.0101
5 | RRIRYRPPRLPRPRPRPRPEPRP | 0.254
6 | RRIRGRPPRLPRPRPRPKCAPRP | 1.61
7 | RRIRKRPPRLPRPRPRPGGVPRP | 0.656
8 | RRIRFRPPRLPRPRPRPAHWPRP | 0.539
9 | RRIRRRPPRLPRPRPRPPMQPRP | 0.385
10 | RRIRERPPRLPRPRPRPWGEPRP | -0.279
11 | RRIRYRPPRLPRPRPRPYDLPRP | -0.0181
12 | RRIRCRPPRLPRPRPRPWYVPRP | -0.461
13 | RRIRQRPPRLPRPRPRPVEAPRP | 0.341
14 | RRIRSRPPRLPRPRPRPNELPRP | -0.295
15 | RRIRWRPPRLPRPRPRPPNGPRP | 0.034
16 | RRIRCRPPRLPRPRPRPKNVPRP | -0.258
17 | RRIRYRPPRLPRPRPRPNQNPRP | -0.967
18 | RRIRLRPPRLPRPRPRPGNIPRP | -0.0276
19 | RRIRYRPPRLPRPRPRPTTRPRP | -0.193
20 | RRIRVRPPRLPRPRPRPSCVPRP | -0.583
21 | RRIRERPPRLPRPRPRPQKLPRP | -0.69
22 | RRIRLRPPRLPRPRPRPTYDPRP | 0.0466
23 | RRIRKRPPRLPRPRPRPAGIPRP | 0.252
24 | RRIRERPPRLPRPRPRPEIAPRP | -0.0389
25 | RRIRARPPRLPRPRPRPMMVPRP | 0.212

Row | Sequence | shrunken log2 fold change
26 | RRIRHRPPRLPRPRPRPSHQPRP | -0.178
27 | RRIRPRPPRLPRPRPRPQGGPRP | 0.332
28 | RRIRWRPPRLPRPRPRPSHMPRP | -0.668
29 | RRIRSRPPRLPRPRPRPRHLPRP | -0.319
30 | RRIRNRPPRLPRPRPRPLQFPRP | 0.0375
31 | RRIRFRPPRLPRPRPRPPQIPRP | 0.241
32 | RRIRIRPPRLPRPRPRPGTPPRP | -0.0727
33 | RRIRDRPPRLPRPRPRPWYVPRP | -0.726
34 | RRIRPRPPRLPRPRPRPKPRPRP | 0.502
35 | RRIRRRPPRLPRPRPRPWMYPRP | -0.305
36 | RRIRTRPPRLPRPRPRPTMCPRP | -0.416
37 | RRIRDRPPRLPRPRPRPGDNPRP | 2.29
38 | RRIRCRPPRLPRPRPRPKCMPRP | -0.483
39 | RRIRRRPPRLPRPRPRPEYTPRP | 0.166
40 | RRIRYRPPRLPRPRPRPKMEPRP | -0.529
41 | RRIRHRPPRLPRPRPRPPVCPRP | -0.0372
42 | RRIRERPPRLPRPRPRPMPTPRP | -0.00177
43 | RRIRTRPPRLPRPRPRPPHSPRP | -0.141
44 | RRIRKRPPRLPRPRPRPMKYPRP | -0.152
45 | RRIRWRPPRLPRPRPRPCNEPRP | -0.409
46 | RRIRIRPPRLPRPRPRPNSIPRP | -0.366
47 | RRIRRRPPRLPRPRPRPEVMPRP | 0.212
48 | RRIRTRPPRLPRPRPRPCPEPRP | -0.0641
49 | RRIRCRPPRLPRPRPRPMQKPRP | 0.0364
50 | RRIRFRPPRLPRPRPRPWHGPRP | -0.151

Row | Sequence | shrunken log2 fold change
51 | RRIRTRPPRLPRPRPRPQAKPRP | -0.147
52 | RRIRRRPPRLPRPRPRPRDKPRP | 0.126
53 | RRIRLRPPRLPRPRPRPEEGPRP | -0.115
54 | RRIRLRPPRLPRPRPRPKGMPRP | -0.0948
55 | RRIRQRPPRLPRPRPRPVGCPRP | 0.23
56 | RRIRNRPPRLPRPRPRPMSKPRP | -0.197
57 | RRIRDRPPRLPRPRPRPYRVPRP | -0.0135
58 | RRIRIRPPRLPRPRPRPLKSPRP | -0.325
59 | RRIRGRPPRLPRPRPRPKEDPRP | 0.796
60 | RRIRYRPPRLPRPRPRPPRPPRP | 0.637
61 | RRIRIRPPRLPRPRPRPICGPRP | -0.161
62 | RRIRIRPPRLPRPRPRPIQGPRP | -0.0119
63 | RRIRCRPPRLPRPRPRPQEGPRP | -0.0193
64 | RRIRTRPPRLPRPRPRPMDGPRP | -0.123
65 | RRIRGRPPRLPRPRPRPSLKPRP | 0.441
66 | RRIRWRPPRLPRPRPRPCMSPRP | -0.00264
67 | RRIRVRPPRLPRPRPRPMMSPRP | 0.00438
68 | RRIRKRPPRLPRPRPRPHLKPRP | 0.0906
69 | RRIRTRPPRLPRPRPRPAEPPRP | 0.392
70 | RRIRFRPPRLPRPRPRPDEPPRP | 0.248
71 | RRIRHRPPRLPRPRPRPHWCPRP | -0.0566
72 | RRIRNRPPRLPRPRPRPDGFPRP | -0.104
73 | RRIRYRPPRLPRPRPRPFVSPRP | 0.00884
74 | RRIRWRPPRLPRPRPRPDYSPRP | -0.106
75 | RRIRLRPPRLPRPRPRPDTRPRP | -0.278
